Test: label from the status in PepcDB records

Sequence: MHIKYLWMCDCGGKKSQGVKWLPFILILVIAAGLWQLTPPSGLSAPAWHSAIIFVATIASIVAKVLPIGAVGIIGITVFALAYAAGDKTASGAITTALSELNSSLIWLIVVAFMIARGFIKTGLGRRIALQMIRLLGKRTLGLAYGLAFADLILSPAMPSNTARCGGVIYPIADSLARSFDSHPEDESRSKIGTFLITCIGNVNDVTAALFMTGYTGNLLAVKLAANAGVTLSWGSWFIAALLPCLVSFLIVPLLVYWLTRPEIKHTPDAPDLARKELAQMGSMTRGEWLMLATVGVLLVLWIFGSSLGVDATTASFVGLSILLLSGVLTWEDVKSEKGAWDTLIWFAALLMMANQLKKLGFTSWFGNLIGDSIGSTMHGTSWIIILLLLNAAYFYTHYFFASGNAQIAALYAVFLGVGLHLNIPAAPMALMLAFTSSLYCSLTQYTHARGPILFGAGYVPTGVWWRTGFIISLFNQAVFLTVGLAWWKVLGLY
- protein production: failed

Sequence: MHISIKTLEGKRIKLEVEDSSNTIDLKIHGEPTRELVVDLSPTPDTGAIMMIFIKTLTGRTNTYEVKGSDTIRELKAKHEEKEGIPVEQQRLIFQGRISIKTVKGKSINLEVADSSDTIDLKINGEPTRQLVLRLGPAVLMRIFVSTIKEKTFILEVKGSDTIKKLKSMIHDQGGPPVDQQDLNHLGTKLKNNATISDYNIKPDANLVIMQNGCIC
- protein production: failed

Sequence: MHKIEQLLQTLAPKGVEFRKLGDIILSLKTGLNPRKFFKLNTPNANNYYVTVRELEEYTIKFTHQTDRIDDNALSLCLKRSNLEKDDIFYSLELEQ
- protein production: failed

Sequence: MHLRLRTKNGLITITVSQQCTIRELSEEIERKTGIEVAKQKILYGFPQRELRADADKPVESVLQSGDSLTVDKLSAETEQERTVESSPASTENAYVRRKVPDDNSCLFHAICYVFRSGSVAQLRHIISETVRLNPDLYTEAFLGKSNHEYSRWILLPETWGGAIELSILSKYFQTEISVFDIQTLRLDRYGEAENYEERVFLLYDGIHYDPIARAFLGASREYDVTVFKIWDNEALVGAKSVAEEANKNRQYTDLASFTLMCRNCGAKLKGETSAVEHAKQTGHTNFTEA
- protein production: failed

Sequence: MHLSLALLVLLFSLILSNVINRIFPRLPLPLIQIIFGVGIGFLLKGEVFELETELFLAFIIAPLLFREGEESDITSILRNWKLILFLIFPVIFVSTLGIGYLAKAVLPASVPLSACLALGAALGPTDFVAYSAISKRFSFPKWISYILQGEGLLNDASGLVAFRVAVTALTTGSFSLLDASWNLVISVIGGFLVGLITALLNRLFLTILDNMDAADVTGALLLELVLPIPSYFVAEEIHVSGIIAVVVAGISLASRFKKITVFDAKLDSVSHTIWGTITFVLNGMVFFLLGTELPTLATPVLSSSTYDTLWMLLAIVLLTAIMFGIRFVMISAVFAQRAWRTKRSLKKIWKVATILTFSGVKGTVSIATILLLPVANMTALEHSLLTFTVAGVTLLSFLIGILILPRLATGPAHTTNHYMQIAILNDVVRELEKDLKQSANQGAVYATIDNYNQRLEDLILEQESNDVKEELANIRIMIMEIESEGLEYAYKKGKISELEYNLYQRYIKGLERRINRGFVSSLSYASAVFVLGLRRILHLAFTFKFRFEQEENRRGPQLTEENRDHMTELYLTNTEQVLEALSNLEGVYHSDLLSYLKRSRIREAEIIQSGAFVERVITHLNPDYVDEMLRGYFLERKIIIEYEQAGRISSRYAKQLRKEVNTLENYSLKETSNTLIYDMINLARRGA
- protein production: failed

Sequence: MHMQLKGKTALVTGSTAGIGKAIATSLVAEGANVLINGRREENVNETIKEIRAQYPDAILQPVVADLGTEQGCQDVIEKYPKVDILINNLGIFEPVEYFDIPDEDWFKLFEVNIMSGVRLTRSYLKKMIERKEGRVIFIASEAAIMPSQEMAHYSATKTMQLSLSRSLAELTTGTNVTVNTIMPGSTLTEGVETMLNSLYPNEQLTIEEAEKRFMKENRPTSIIQRLIRPEEIAHLVTFLSSPLSSAINGSALRIDGGLVRSVF
- protein production: not failed

Sequence: MHSFPPLLLLLFWGVVSHSFPATLETQEQDVDLVQKYLEKYYNLKNDGRQVEKRRNSGPVVEKLKQMQEFFGLKVTGKPDAETLKVMKQPRCGVPDVAQFVLTEGNPRWEQTHLTYRIENYTPDLPRADVDHAIEKAFQLWSNVTPLTFTKVSEGQADIMISFVRGDHRDNSPFDGPGGNLAHAFQPGPGIGGDAHFDEDERWTNNFREYNLHRVAAHELGHSLGLSHSTDIGALMYPSYTFSGDVQLAQDDIDGIQAIYGRSQNPVQPIGPQTPKACDSKLTFDAITTIRGEVMFFKDRFYMRTNPFYPEVELNFISVFWPQLPNGLEAAYEFADRDEVRFFKGNKYWAVQGQNVLHGYPKDIYSSFGFPRTVKHIDAALSEENTGKTYFFVANKYWRYDEYKRSMDPGYPKMIAHDFPGIGHKVDAVFMKDGFFYFFHGTRQYKFDPKTKRILTLQKANSWFNCRKN
- protein production: not failed

Sequence: MHSHPSPKFSVITVTYNAEKVLEDTVQSVISQTYHHVEYIIIDGASKDGTLEIVNRYRNRINQLVSEPDKGLYDAMNKGIALATGDYLCFLNAGDSFHEDDTLQKMVHSINGNELPDILYGETALVDAERHFLRMRRLSAPETLNWKSFKQGMLVCHQAFFPRHTLIEPYDLQYRFSADFDWCIHIMKKARTFHNTHLILIDYLAEGMTTQNHKASLLERFRIMTRHYGLLSTLAHHAWFVVRSFSRNSATPSDAPFLEHHHHHH
- protein production: failed

Sequence: MHTDTERCVRAVQSKDARFDGWFFTAVLTTGIYCRPSCPVVPPKPGNMTFYPSAAACQQAGFRACKRCRPDTSPGSPEWNRRADLTARAMRLIADGVVDREGVPGLASRLGYSTRQVERQLLAELGAGPLALARAQRAQTARLLIETTPLPMADIAFAAGFSSIRTFNDTVREVYALSPSELRTRAPRNRRAATAPGALSLRLPFRAPLNPDNLFGHLAATAVPGVEEWRDGAYRRTLRLPYGHGIVALTPNPDHIACRLTLSDLRDLTVAISRCRRLLDLDADPTAIDDQLRADPLLAPLVDKAPGRRVPRTVDEAEFAVRAVLGQQVSTAAARTHAARLVTAHGDPVDDPEGGLTHLFPSTEALAAVDPETLAMPRTRRTTFTTLVAHLADGSVNPGVESDWAETRARLLALPGFGPWTADVIAMRALGDPDAFLPTDLGIRRAAAELGLPSTPAALTARAAAWRPWRAYAVQYLWATDDHPINFLPV
- protein production: failed

Sequence: MHTDVNALFAALWQDYIKMTPSAAKIHQLLGHGAPIINDHIALRTFNIAKVNLSVLAKHFTSIGYVDSGDYKFEQKKLIAKHFEHPDPKQPKVFISELLVEEFSPEVQKSIHGLIDQVDIAATTADNFIYSGRHWDVDKATYQALLAESEYAAWVAALGYRANHFTVSINDLPEFERIEDVNQALKQAGFVLNSSGGEVKGSPEVLLEQSSTMADKVVVNFTDGDVEIPSCFYEFARRYPMANGQLYTGFVAASADKIFESTNAMM
- protein production: not failed

Sequence: MHTFTASSSLGASADALFTWHSRPGAFERLTPPWAPVRLQSFEGIEAGDRAVLRIGPGPLAVRWVAEHYGVEPGRQFCDRQVQGPFSHWEHTHRFTPADDDTGGATLTDRIEYEPPGGALGRQAAPWLEAELRRQFAYRHRITRRDLSLHQQYNPDDRSLTIAVSGASGLVGSSLVPFLTTGGHTVKRLTRSGPTGADEILWDPRTDRVEADKLEGIDAVIHLAGENVFGPWTPAKKQRIYSSRADGTRLLAEALAGLDDPPEVLVSSSAVGYYGDHGADRITEESAPRDAGFLGEVCEAWEAAAEPAAAAGIRTVQMRTGIVLTPAGGALRLMLPAFWLGLGGRVGGRHQYFPWITLDDVIGGIYHALWTDALEGPVNLTAPRPVTMQAYTDTLADVLHRPAFLNVPSSVVRTVGGEMADEMLLTSARAVPQRLQDTGYDFGASALEDGLRHVLGRTAD
- protein production: failed

Sequence: MHTISLKRILIYIVLLVTSFALLVGFTVNIVSQVAQYQESLHDQALSYSRIVAGNAASSLVFNDNANEKQRLSSLENTSFIQHVHVYKMDETSNELTFFSSYNKKGLPPIPARFAKLDKLTTPQTNDNYIEVSQPVVLDDEVIGYVYLRGSLEQARLFMWRSIGIASVVFVLTLLLCWLITLRLRKTIVTPLDSVVDVISQVARDKNYSLRLAPSKLVEFDMMAHAFNTMLDRVQQHISRQRRAEEEASQLNTELERQVTQRTQALKESNSELLKTLEQLHQYQGQLVESEKMASLGDMVAGIAHEVNTPIGLSVTASTLLQDKLTIMQEKFDEKRISTSEFERFLSDCDENLQIIYRNLGRAADLVTSFKQVAVDQSSEIDRDIHIPSFMNDVLISVKPRRLDPEKFPIRISCPEGLTVRAKAGPLNQVLINLIVNSMIHAFEGYSSGRVDISFTMVGDDKLEMVYTDNGKGVPSDINRKIFDPFVTTKRGSGGSGLGLHLVYNLVTQVLGGNIHFFSEEKNGVEFIVRFPVTLVSNA
- protein production: failed

Sequence: MHTPTAVLRPADFLAPIVAALISVLVNYGGTFVLVFQAAELAGLSAAQTTSWVWAVSIGVGVTGIALSWRYREPIITAWSTPGVAFLATVMPFTPYGEVIGAYLAAALGFVVLGLSGAFEKLVRMIPAGIAAGLLAGILLQFGINAFGGASADPLLVIALLVSYALLKRYTSRFAVVGILVIGLGLLAAQQRVDFAALHLSLAAPVFEMPRFSLHAMLGVALPLFVITLTGQYMPGMLVLRNDGFKTSANPILVATGLGSLVMAPFGAHTFNVAAITAAICTGRDAHEDPRKRYIAGLACGVFYILVGLFGVTLATLFMVLPKTFITTLAGLALLGTIGGSLASAMADARTRETALITFLATAANVTLLGVGGAFWGLVAGLAAHGLIHFRQPEPAAARPALLSPTSQDTR
- protein production: failed

Sequence: MHTSVQHAKTCLAVTSVSPIYVFGKTTFVSELIEQAGGKNCVETIQSAYPTVDVEYILRANPDVFIFNSTDQQKLFFETYPLLKQCKGYITNQLFVIDDSIMSRPGIRLPILKDSLVSILSKLEHHHHHH
- protein production: failed

Sequence: MHVLNILWVVFGIGLMLVLNLKFKINSMVALLVAALSVGMLAGMDLMSLLHTMKAGFGNTLGELAIIVVFGAVIGKLMVDSGAAHQIAHTLLARLGLRYVQLSVIIIGLIFGLAMFYEVAFIMLAPLVIVIAAEAKIPFLKLAIPAVAAATTAHSLFPPQPGPVALVNAYGADMGMVYIYGVLVTIPSVICAGLILPKFLGNLERPTPSFLKADQPVDMNNLPSFGVSILVPLIPAIIMISTTIANIWLVKDTPAWEVVNFIGSSPIAMFIAMVVAFVLFGTARGHDMQWVMNAFESAVKSIAMVILIIGAGGVLKQTIIDTGIGDTIGMLMSHGNISPYIMAWLITVLIRLATGQGVVSAMTAAGIISAAILDPATGQLVGVNPALLVLATAAGSNTLTHINDASFWLFKGYFDLSVKDTLKTWGLLELVNSVVGLIIVLIISMVA
- protein production: failed

Sequence: MHYQPKQDLLNDRIILVTGASDGIGREAAMTYARYGATVILLGRNEEKLRQVASHINEETGRQPQWFILDLLTCTSENCQQLAQRIAVNYPRLDGVLHNAGLLGDVCPMSEQNPQVWQDVMQVNVNATFMLTQALLPLLLKSDAGSLVFTSSSVGRQGRANWGAYAASKFATEGMMQVLADEYQQRLRVNCINPGGTRTAMRASAFPTEDPQKLKTPADIMPLYLWLMGDDSRRKTGMTFDAQPGRKPGISQ
- protein production: failed

Sequence: MIAAPTQLAIMPFPNIDPIALSIGPLAIHWYGIAYVAGIMLGWFYARRLARTDRLWPNDTSPISAQHLDDFILWAAGGIVLGGRIGYILFYDMAAVAANPIRAIEIWNGGMSFHGGLIGTTIAMILFARRNGIPVWSMFDIIAAVAPIGLLFGRIANFINGELWGRIADVPWAVVFPTGGPFARHPSQLYEAGLEGLVLVVLLAIAIYVFKALKTPGTVTGIFVCGYALSRIFVEFFREPDAQIGYLAGNWLTMGMVLSTPMFLLGLWAVLRARSATKSA
- protein production: not failed

Sequence: MIAITLLVVIDQVALSQTFPILTIIYALATILPAWGVLVRRLHDIGRSGWWMLISCVPLVGGIILFVFTVMDSQQGDNQFGASPKAAL
- protein production: failed

Reference: a protein production outcome set (Wang et al. 2014)
